Test results from patent publication US7220569.

Tests used:
[1] = test system: Factor X analogue with the FXIa cleavage site Asp-Phe-Thr-Arg/Val (rFX^DFTR/V)
[2] = test system: rFactor X from furin deficient CHO-FD11 cells (CHO-FD11-rFX)
[3] = test system: recombinant Factor X (rFX) from highly expressing CHO-rFX clones
Sequence of recombinant Factor X (rFX) from highly expressing CHO-rFX clones (chain, as listed by the source): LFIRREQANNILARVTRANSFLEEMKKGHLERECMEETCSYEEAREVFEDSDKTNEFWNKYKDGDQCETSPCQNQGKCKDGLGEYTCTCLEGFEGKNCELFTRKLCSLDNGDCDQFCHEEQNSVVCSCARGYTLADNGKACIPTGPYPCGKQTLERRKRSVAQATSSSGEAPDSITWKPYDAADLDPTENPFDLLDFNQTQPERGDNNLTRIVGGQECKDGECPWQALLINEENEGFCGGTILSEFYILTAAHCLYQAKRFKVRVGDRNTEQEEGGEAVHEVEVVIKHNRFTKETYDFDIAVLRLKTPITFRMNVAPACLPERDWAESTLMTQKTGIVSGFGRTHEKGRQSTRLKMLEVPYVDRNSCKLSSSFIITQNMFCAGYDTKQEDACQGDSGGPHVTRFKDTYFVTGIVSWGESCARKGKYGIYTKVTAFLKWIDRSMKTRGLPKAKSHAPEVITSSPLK

Sequence of rFactor X from furin deficient CHO-FD11 cells (CHO-FD11-rFX) (chain, as listed by the source): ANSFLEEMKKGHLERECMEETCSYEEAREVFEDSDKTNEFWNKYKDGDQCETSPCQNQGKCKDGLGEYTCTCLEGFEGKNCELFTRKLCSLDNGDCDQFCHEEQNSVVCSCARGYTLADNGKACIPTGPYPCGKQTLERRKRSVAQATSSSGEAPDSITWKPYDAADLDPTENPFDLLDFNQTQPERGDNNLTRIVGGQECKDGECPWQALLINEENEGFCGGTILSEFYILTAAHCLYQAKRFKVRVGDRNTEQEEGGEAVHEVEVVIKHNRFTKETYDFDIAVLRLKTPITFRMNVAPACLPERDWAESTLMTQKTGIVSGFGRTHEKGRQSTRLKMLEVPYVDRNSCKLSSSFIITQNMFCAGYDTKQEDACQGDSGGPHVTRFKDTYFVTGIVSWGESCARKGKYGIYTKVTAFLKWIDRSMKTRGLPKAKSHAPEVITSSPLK
Sequence of Factor X analogue with the FXIa cleavage site Asp-Phe-Thr-Arg/Val (rFX^DFTR/V) (chain, as listed by the source, chain 1 of 2): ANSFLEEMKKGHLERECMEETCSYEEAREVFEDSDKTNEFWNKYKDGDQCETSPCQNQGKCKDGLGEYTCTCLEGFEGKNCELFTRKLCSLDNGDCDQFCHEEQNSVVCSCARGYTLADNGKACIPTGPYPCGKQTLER
Sequence of Factor X analogue with the FXIa cleavage site Asp-Phe-Thr-Arg/Val (rFX^DFTR/V) (chain, as listed by the source, chain 2 of 2): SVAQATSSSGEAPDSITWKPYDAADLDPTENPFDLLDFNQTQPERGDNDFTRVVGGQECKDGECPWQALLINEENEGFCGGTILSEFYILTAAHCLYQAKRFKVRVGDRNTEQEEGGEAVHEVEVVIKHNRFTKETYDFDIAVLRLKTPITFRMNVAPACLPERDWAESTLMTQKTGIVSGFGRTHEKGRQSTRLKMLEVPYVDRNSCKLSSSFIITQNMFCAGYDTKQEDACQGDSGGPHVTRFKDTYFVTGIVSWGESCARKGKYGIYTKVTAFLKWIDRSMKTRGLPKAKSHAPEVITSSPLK

## purified plasma FXIa
[1]
  activation of rFX^DFTR/V to the 35 kD and 31 kD forms (Western blot): protein bands of 35 kD and 31 kD rapidly appear after the addition of purified FXIa, but prior to the actual incubation of the cell sulture supernatant (FIG. 11, lane 3)

## rfurin deltaTM6xHis (CHO-rfurin cell culture supernatant)
[2]
  N-termini of processing products after 12 hours at 37 C with CHO-rfurin supernatant (Edman analysis): After incubation of rFX from CHO cells (c) and CHO-FD11 cells (e) in the presence of furin, only light and heavy chains having correct N-termini are found
[3]
  N-termini of processing products after 12 hours at 37 C with CHO-rfurin supernatant (Edman analysis): After incubation of rFX from CHO cells (c) and CHO-FD11 cells (e) in the presence of furin, only light and heavy chains having correct N-termini are found
  activity (mU), FX Coatest after RVV activation, incubation 0 days: 853 mU
  activity (mU), FX Coatest after RVV activation, incubation 1 day: 1020 mU
  activity (mU), FX Coatest after RVV activation, incubation 2 days: 1100 mU
  activity (mU), FX Coatest after RVV activation, incubation 3 days: 1140 mU
  activity (mU), FX Coatest after RVV activation, incubation 4 days: 1200 mU
  functional portion of rFX (%), incubation 0 days: 61%
  functional portion of rFX (%), incubation 1 day: 73%
  functional portion of rFX (%), incubation 2 days: 79%
  functional portion of rFX (%), incubation 3 days: 81%
  functional portion of rFX (%), incubation 4 days: 86%
  processing of pro-Factor X on tentacle gel immobilized rfurin derivative (Western blot of the effluent): Processing of pro-Factor X to double chain Factor X was detected in the effluent of the column
  processing of single chain and propeptide containing rFX (Western blot): almost complete processing already after 2 hours of incubation at 37 °C

## endogenous furin of CHO cells
[3]
  processing of rFactor X precursor in furin containing versus furin deficient CHO clones (Western blot): rFactor X precursor is not processed in the furin deficient cells and only single chain Factor X precursor is present (FIG. 6); in contrast, rFactor X is completely processed by "normal" cells at modest expression
